According to US20260167699A1 (Chugai, published 2026):
Positions count from the first letter of the chain named.

T1: FcγRIIa(R) extracellular domain with C-terminal His tag (human, UniProt P12318 34-217)
T1 construct: extracellular domain; R131 allotype; also called 2aR; CD32
T1 sequence: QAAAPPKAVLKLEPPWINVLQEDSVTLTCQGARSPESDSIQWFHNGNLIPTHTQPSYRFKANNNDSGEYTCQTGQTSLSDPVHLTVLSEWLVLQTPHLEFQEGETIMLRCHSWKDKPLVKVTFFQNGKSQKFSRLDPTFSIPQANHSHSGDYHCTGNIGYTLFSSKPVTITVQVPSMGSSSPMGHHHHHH

T2: FcγRIIa(H) extracellular domain with C-terminal His tag (human, UniProt P12318 34-217)
T2 construct: extracellular domain; H131 allotype; also called 2aH; CD32
T2 sequence: T1 sequence with R134H

T3: FcγRIIb extracellular domain with C-terminal His tag (human, UniProt P31994 43-217)
T3 construct: extracellular domain; also called 2b; CD32
T3 sequence: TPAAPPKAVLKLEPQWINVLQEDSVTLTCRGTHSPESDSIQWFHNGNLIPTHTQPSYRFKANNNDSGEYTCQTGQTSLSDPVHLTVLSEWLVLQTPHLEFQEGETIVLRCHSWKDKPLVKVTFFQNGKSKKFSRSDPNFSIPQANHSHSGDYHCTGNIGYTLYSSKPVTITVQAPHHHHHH

B1: GpH7-A5/GpH7-B3 variant E333_01G/GpL16-k0 (antibody, human IgG1, kappa)
heavy 1: not shown
heavy 2: not shown
light: DIVMTQSPLSLPVTPGEPASISCQASESLVHSNRNTYLHWYLQKPGQSPQLLIYKVSNRFSGVPDRFSGSGSGTDFTLKISRVEAEDVGVYYCSQNTHVPPTFGQGTKVEIERTVAAPSVFIFPPSDEQLKSGTASVVCLLNNFYPREAKVQWKVDNALQSGNSQESVTEQDSKDSTYSLSSTLTLSKADYEKHKVYACEVTHQGLSSPVTKSFNRGEC
notes: heterodimerized IgG1 (He Ab), mutation in one H chain only; also called He Ab
B2: GpH7-A5/GpH7-B3 variant E333_11K/GpL16-k0 (antibody, human IgG1, kappa)
heavy 1: not shown
heavy 2: not shown
light: B1 light
notes: as for B1
B3: GpH7-A5/GpH7-B3 variant I332_03V/GpL16-k0 (antibody, human IgG1, kappa)
heavy 1: not shown
heavy 2: not shown
light: B1 light
notes: as for B1
B4: GpH7-A5/GpH7-B3 variant E333_03V/GpL16-k0 (antibody, human IgG1, kappa)
heavy 1: not shown
heavy 2: not shown
light: B1 light
notes: as for B1
B5: GpH7-A5/GpH7-B3 variant E333_09D/GpL16-k0 (antibody, human IgG1, kappa)
heavy 1: not shown
heavy 2: not shown
light: B1 light
notes: as for B1
B6: GpH7-A5/GpH7-B3 variant I332_10E/GpL16-k0 (antibody, human IgG1, kappa)
heavy 1: not shown
heavy 2: not shown
light: B1 light
notes: as for B1
B7: GpH7-A5/GpH7-B3 variant E333_14T/GpL16-k0 (antibody, human IgG1, kappa)
heavy 1: not shown
heavy 2: not shown
light: B1 light
notes: as for B1
B8: GpH7-A5/GpH7-B3 variant E333_15Y/GpL16-k0 (antibody, human IgG1, kappa)
heavy 1: not shown
heavy 2: not shown
light: B1 light
notes: as for B1
B9: GpH7-A5/GpH7-B3 variant E333_20W/GpL16-k0 (antibody, human IgG1, kappa)
heavy 1: not shown
heavy 2: not shown
light: B1 light
notes: as for B1
B10: GpH7-A5/GpH7-B3 variant I332_04F/GpL16-k0 (antibody, human IgG1, kappa)
heavy 1: not shown
heavy 2: not shown
light: B1 light
notes: as for B1
B11: GpH7-A5/GpH7-B3 variant I332_01G/GpL16-k0 (antibody, human IgG1, kappa)
heavy 1: not shown
heavy 2: not shown
light: B1 light
notes: as for B1
B12: GpH7-A5/GpH7-B3 variant I332_14T/GpL16-k0 (antibody, human IgG1, kappa)
heavy 1: not shown
heavy 2: not shown
light: B1 light
notes: as for B1
B13: GpH7-A5/GpH7-B3 variant E333_12R/GpL16-k0 (antibody, human IgG1, kappa)
heavy 1: not shown
heavy 2: not shown
light: B1 light
notes: as for B1
B14: GpH7-A5/GpH7-B3 variant E333_16H/GpL16-k0 (antibody, human IgG1, kappa)
heavy 1: not shown
heavy 2: not shown
light: B1 light
notes: as for B1
B15: GpH7-A5/GpH7-B3 variant I332_05P/GpL16-k0 (antibody, human IgG1, kappa)
heavy 1: not shown
heavy 2: not shown
light: B1 light
notes: as for B1
B16: GpH7-A5/GpH7-B3 variant E333_19Q/GpL16-k0 (antibody, human IgG1, kappa)
heavy 1: not shown
heavy 2: not shown
light: B1 light
notes: as for B1
B17: GpH7-A5/GpH7-B3 variant E333_13S/GpL16-k0 (antibody, human IgG1, kappa)
heavy 1: not shown
heavy 2: not shown
light: B1 light
notes: as for B1
B18: GpH7-A5/GpH7-B3 variant E333_06M/GpL16-k0 (antibody, human IgG1, kappa)
heavy 1: not shown
heavy 2: not shown
light: B1 light
notes: as for B1
B19: GpH7-A5/GpH7-B3 variant I332_13S/GpL16-k0 (antibody, human IgG1, kappa)
heavy 1: not shown
heavy 2: not shown
light: B1 light
notes: as for B1
B20: GpH7-A5/GpH7-B3 variant E333_05P/GpL16-k0 (antibody, human IgG1, kappa)
heavy 1: not shown
heavy 2: not shown
light: B1 light
notes: as for B1
B21: GpH7-A5/GpH7-B3 variant I332_08L/GpL16-k0 (antibody, human IgG1, kappa)
heavy 1: not shown
heavy 2: not shown
light: B1 light
notes: as for B1
B22: GpH7-A5/GpH7-B3 variant E333_08L/GpL16-k0 (antibody, human IgG1, kappa)
heavy 1: not shown
heavy 2: not shown
light: B1 light
notes: as for B1
B23: GpH7-A5/GpH7-B3 variant I332_12R/GpL16-k0 (antibody, human IgG1, kappa)
heavy 1: not shown
heavy 2: not shown
light: B1 light
notes: as for B1
B24: GpH7-A5/GpH7-B3 variant I332_09D/GpL16-k0 (antibody, human IgG1, kappa)
heavy 1: not shown
heavy 2: not shown
light: B1 light
notes: as for B1
B25: GpH7-A5/GpH7-B3 variant I332_06M/GpL16-k0 (antibody, human IgG1, kappa)
heavy 1: not shown
heavy 2: not shown
light: B1 light
notes: as for B1
B26: GpH7-A5/GpH7-B3 variant E333_04F/GpL16-k0 (antibody, human IgG1, kappa)
heavy 1: not shown
heavy 2: not shown
light: B1 light
notes: as for B1
B27: GpH7-A5/GpH7-B3 variant I332_02A/GpL16-k0 (antibody, human IgG1, kappa)
heavy 1: not shown
heavy 2: not shown
light: B1 light
notes: as for B1
B28: GpH7-A5/GpH7-B3 variant E333_07I/GpL16-k0 (antibody, human IgG1, kappa)
heavy 1: not shown
heavy 2: not shown
light: B1 light
notes: as for B1
B29: GpH7-A5/GpH7-B3 variant E333_02A/GpL16-k0 (antibody, human IgG1, kappa)
heavy 1: not shown
heavy 2: not shown
light: B1 light
notes: as for B1
B30: GpH7-A5/GpH7-B3 variant E333_18N/GpL16-k0 (antibody, human IgG1, kappa)
heavy 1: not shown
heavy 2: not shown
light: B1 light
notes: as for B1

These binders were tested against T1, FcγRIIa(R) extracellular domain with … (assay: SPR; % of GpH7-A5/GpH7-B3/GpL16-k0).

Row | He/Con 2aR [%] | Binder
1 | 127 | B1
2 | 128 | B2
3 | 87 | B3
4 | 135 | B4
5 | 141 | B5
6 | 113 | B6
7 | 135 | B7
8 | 137 | B8
9 | 132 | B9
10 | 104 | B10
11 | 92.2 | B11
12 | 104 | B12
13 | 127 | B13
14 | 119 | B14
15 | 80.5 | B15
16 | 130 | B16
17 | 125 | B17
18 | 132 | B18
19 | 97.9 | B19
20 | 143 | B20
21 | 91 | B21
22 | 140 | B22
23 | 73.5 | B23
24 | 118 | B24
25 | 108 | B25
26 | 139 | B26
27 | 96.9 | B27
28 | 142 | B28
29 | 128 | B29
30 | 118 | B30

Each binder was assayed against T4, FcγRIIIa extracellular domain with C-terminal His tag (human, UniProt P08637 17-208) (assay: SPR; % of GpH7-A5/GpH7-B3/GpL16-k0).
T4 construct: extracellular domain; also called 3a; CD16
T4 sequence (P08637 other isoform, or with tags, fused parts or gaps): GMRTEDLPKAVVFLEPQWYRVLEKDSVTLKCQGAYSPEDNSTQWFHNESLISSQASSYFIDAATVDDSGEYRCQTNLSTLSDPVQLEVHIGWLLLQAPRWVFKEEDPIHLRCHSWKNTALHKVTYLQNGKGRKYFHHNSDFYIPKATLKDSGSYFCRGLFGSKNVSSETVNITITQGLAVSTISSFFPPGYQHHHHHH

Row | He/Con 3a [%] | Binder
31 | 101 | B1
32 | 97.7 | B2
33 | 85.2 | B3
34 | 106 | B4
35 | 115 | B5
36 | 213 | B6
37 | 100 | B7
38 | 101 | B8
39 | 104 | B9
40 | 89.3 | B10
41 | 101 | B11
42 | 110 | B12
43 | 92.2 | B13
44 | 106 | B14
45 | 56.3 | B15
46 | 101 | B16
47 | 106 | B17
48 | 100 | B18
49 | 95.6 | B19
50 | 100 | B20
51 | 76 | B21
52 | 102 | B22
53 | 78.1 | B23
54 | 189 | B24
55 | 92.5 | B25
56 | 104 | B26
57 | 103 | B27
58 | 100 | B28
59 | 108 | B29
60 | 76.2 | B30

The binders below were run against T5, FcγRIa extracellular domain with C-terminal His tag (human, UniProt P12314 16-292) (assay: SPR; % of GpH7-A5/GpH7-B3/GpL16-k0).
T5 construct: extracellular domain; also called 1a; CD64
T5 sequence (P12314 other isoform, or with tags, fused parts or gaps): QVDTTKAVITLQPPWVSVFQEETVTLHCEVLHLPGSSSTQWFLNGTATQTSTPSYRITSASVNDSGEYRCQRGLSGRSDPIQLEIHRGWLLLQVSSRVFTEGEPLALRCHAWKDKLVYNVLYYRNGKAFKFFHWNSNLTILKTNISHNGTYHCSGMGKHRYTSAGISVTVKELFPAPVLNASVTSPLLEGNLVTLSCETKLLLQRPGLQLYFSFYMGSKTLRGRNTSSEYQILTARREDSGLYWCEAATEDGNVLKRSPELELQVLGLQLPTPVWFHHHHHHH

Row | He/Con 1a [%] | Binder
61 | 97.2 | B1
62 | 96.6 | B2
63 | 100 | B3
64 | 99.4 | B4
65 | 98 | B5
66 | 109 | B6
67 | 96.7 | B7
68 | 95.8 | B8
69 | 93.9 | B9
70 | 106 | B10
71 | 102 | B11
72 | 104 | B12
73 | 96.7 | B13
74 | 95.4 | B14
75 | 99.2 | B15
76 | 93.7 | B16
77 | 97.6 | B17
78 | 96.7 | B18
79 | 97.3 | B19
80 | 96.9 | B20
81 | 104 | B21
82 | 96.8 | B22
83 | 102 | B23
84 | 106 | B24
85 | 105 | B25
86 | 96.9 | B26
87 | 100 | B27
88 | 96.5 | B28
89 | 97.7 | B29
90 | 91.4 | B30

Each binder was assayed against T2, FcγRIIa(H) extracellular domain with … (assay: SPR; % of GpH7-A5/GpH7-B3/GpL16-k0).

Row | He/Con 2aH [%] | Binder
91 | 112 | B1
92 | 112 | B2
93 | 108 | B3
94 | 112 | B4
95 | 119 | B5
96 | 112 | B6
97 | 115 | B7
98 | 114 | B8
99 | 106 | B9
100 | 108 | B10
101 | 102 | B11
102 | 119 | B12
103 | 110 | B13
104 | 114 | B14
105 | 69.9 | B15
106 | 113 | B16
107 | 115 | B17
108 | 110 | B18
109 | 113 | B19
110 | 112 | B20
111 | 94.9 | B21
112 | 116 | B22
113 | 104 | B23
114 | 122 | B24
115 | 114 | B25
116 | 116 | B26
117 | 115 | B27
118 | 113 | B28
119 | 115 | B29
120 | 110 | B30

The binders below were run against T3, FcγRIIb extracellular domain with … (assay: SPR; % of GpH7-A5/GpH7-B3/GpL16-k0).

Row | He/Con 2b [%] | Binder
121 | 105 | B1
122 | 104 | B2
123 | 89.5 | B3
124 | 120 | B4
125 | 122 | B5
126 | 158 | B6
127 | 111 | B7
128 | 122 | B8
129 | 116 | B9
130 | 115 | B10
131 | 96.6 | B11
132 | 118 | B12
133 | 104 | B13
134 | 108 | B14
135 | 83.7 | B15
136 | 110 | B16
137 | 106 | B17
138 | 110 | B18
139 | 109 | B19
140 | 126 | B20
141 | 91.3 | B21
142 | 123 | B22
143 | 60.9 | B23
144 | 163 | B24
145 | 116 | B25
146 | 122 | B26
147 | 114 | B27
148 | 124 | B28
149 | 108 | B29
150 | 98.2 | B30
